Experimental data as given in patent US20230406951A1 (Pfizer, published 2023).
Where “and” joins values, the source holds several entries; their conditions need not be identical. Equal entries are not always repeated. Each block holds one binder with its values, some of them ahead of it.

Key:
cynomolgus monkey TNFR2 [1] = target: T1, cynomolgus monkey TNFR2 (cynomolgus monkey, UniProt P20333 23-461 (human entry)); assay: cell-based or functional assay
T1 chain: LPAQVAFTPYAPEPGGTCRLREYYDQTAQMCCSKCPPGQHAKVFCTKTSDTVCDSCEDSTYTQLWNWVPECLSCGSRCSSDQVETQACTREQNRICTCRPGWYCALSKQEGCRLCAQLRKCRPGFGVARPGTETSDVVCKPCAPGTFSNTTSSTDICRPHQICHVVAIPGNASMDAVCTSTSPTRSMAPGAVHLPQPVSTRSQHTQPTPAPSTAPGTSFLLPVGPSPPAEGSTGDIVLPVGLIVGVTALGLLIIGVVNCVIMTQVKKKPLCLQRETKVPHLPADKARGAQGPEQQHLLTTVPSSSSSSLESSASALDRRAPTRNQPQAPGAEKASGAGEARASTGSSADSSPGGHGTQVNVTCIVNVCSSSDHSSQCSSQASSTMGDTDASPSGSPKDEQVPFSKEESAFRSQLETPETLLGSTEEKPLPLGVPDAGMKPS

human TNFR2 [2] = target: T2, human TNFR2 (human, UniProt P20333 23-461); assay: cell-based or functional assay
T2 sequence: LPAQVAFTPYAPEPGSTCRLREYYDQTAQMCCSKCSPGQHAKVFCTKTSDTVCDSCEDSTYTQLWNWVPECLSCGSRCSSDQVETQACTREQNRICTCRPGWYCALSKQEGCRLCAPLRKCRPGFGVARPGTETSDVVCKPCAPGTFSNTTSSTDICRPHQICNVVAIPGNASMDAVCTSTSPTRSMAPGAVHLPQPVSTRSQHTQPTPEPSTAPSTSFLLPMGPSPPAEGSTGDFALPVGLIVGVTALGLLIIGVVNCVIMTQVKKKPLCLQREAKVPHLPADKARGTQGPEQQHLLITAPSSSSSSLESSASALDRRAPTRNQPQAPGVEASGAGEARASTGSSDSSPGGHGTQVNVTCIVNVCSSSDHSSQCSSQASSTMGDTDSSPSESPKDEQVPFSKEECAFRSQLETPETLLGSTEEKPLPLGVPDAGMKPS

cynomolgus monkey TNFR2 [3] = target: T1, cynomolgus monkey TNFR2; assay: cell-based or functional assay
human TNFR2 [4] = target: T2, human TNFR2; assay: cell-based or functional assay; remark: listed apart in the source
biotinylated human TNFR2 [5] = target: T3, biotinylated human TNFR2 (human, UniProt P20333 23-257, biotinylated); assay: SPR (BIAcore), apparent affinity
T3 construct: Soluble biotinylated protein captured on a streptavidin chip for SPR; also called HuTNFR2
T3 sequence: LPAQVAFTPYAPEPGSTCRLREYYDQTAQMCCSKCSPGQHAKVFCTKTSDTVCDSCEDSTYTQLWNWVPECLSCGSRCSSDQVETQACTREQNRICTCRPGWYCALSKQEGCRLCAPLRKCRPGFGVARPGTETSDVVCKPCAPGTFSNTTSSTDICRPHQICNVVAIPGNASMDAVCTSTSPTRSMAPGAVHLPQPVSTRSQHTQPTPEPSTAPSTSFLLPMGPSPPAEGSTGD
Experimental: (§1) Increased avidity was confirmed by Surface Plasmon Resonance (SPR) using a BIAcore. Briefly, biotinylated human- or cyno-TNFR2 was captured on the surface of a streptavidin chip for 60 seconds at a flow rate of […]. […] The dissociation phase was then initiated with running buffer (HBS-EP+) injected for 600 seconds at […]. Data were analyzed using the Biacore Evaluation Software.

cynomolgus monkey TNFR2 [6] = target: T1, cynomolgus monkey TNFR2; assay: cell-based or functional assay
human TNFR2 [7] = target: T2, human TNFR2; assay: cell-based or functional assay; remark: listed apart in the source
cynomolgus monkey TNFR2 [8] = target: T1, cynomolgus monkey TNFR2; assay: cell-based or functional assay
human TNFR2 [9] = target: T2, human TNFR2; assay: cell-based or functional assay; remark: listed apart in the source
human TNFR2 [10] = target: T2, human TNFR2; assay: cell-based or functional assay; remark: listed apart in the source
biotinylated cyno TNFR2 [11] = target: T4, biotinylated cyno TNFR2 (cynomolgus monkey, UniProt P20333 23-257 (human entry), limits assumed, biotinylated); assay: SPR (BIAcore), biotinylated TNFR2 captured on streptavidin chip, TetraFab as analyte (apparent affinity)
T4 construct: Soluble biotinylated protein captured on a streptavidin chip for SPR; also called CyTNFR2
T4 chain: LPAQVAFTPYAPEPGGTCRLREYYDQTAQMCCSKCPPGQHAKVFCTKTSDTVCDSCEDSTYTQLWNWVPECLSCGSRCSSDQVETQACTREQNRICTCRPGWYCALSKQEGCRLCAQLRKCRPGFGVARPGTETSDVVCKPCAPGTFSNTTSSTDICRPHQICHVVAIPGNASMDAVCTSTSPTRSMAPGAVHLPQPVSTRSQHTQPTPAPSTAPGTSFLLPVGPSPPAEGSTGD
Experimental: as §1

biotinylated human TNFR2 [12] = target: T3, biotinylated human TNFR2; assay: as above
Experimental: as §1

cynomolgus monkey TNFR2 [13] = target: T1, cynomolgus monkey TNFR2; assay: cell-based or functional assay
human TNFR2 [14] = target: T2, human TNFR2; assay: cell-based or functional assay; remark: listed apart in the source
human TNFR2 [15] = target: T2, human TNFR2; assay: binding to human TNFR2 CHO cells
biotinylated cyno TNFR2 [16] = target: T4, biotinylated cyno TNFR2; assay: SPR (BIAcore), biotinylated TNFR2 captured on streptavidin chip, antibody as analyte (apparent affinity)
Experimental: as §1

biotinylated human TNFR2 [17] = target: T3, biotinylated human TNFR2; assay: as above
Experimental: as §1

EC50 CyPBMC (CD25+/Ki67+ of CD4+ cells) (cynomolgus monkey TNFR2 [1]): 5.95 mg/L | EC50 HuPBMC (ICAM-1 up-regulation) (human TNFR2 [2]): 0.116 mg/L | Cyno EC50, OX-40 up-regulation on splenic Treg, donor 17-5215 (cynomolgus monkey TNFR2 [3]): 1.75 nM | Cyno EC50, OX-40 up-regulation on splenic Treg, donor #31 (cynomolgus monkey TNFR2 [3]): 0.799 nM | Cyno EC50, OX-40 up-regulation on splenic Treg, donor #34 (cynomolgus monkey TNFR2 [3]): 0.905 nM | Cyno EC50, OX-40 up-regulation on splenic Treg, donor TA1 (cynomolgus monkey TNFR2 [3]): 0.642 nM | Cyno EC50, OX-40 up-regulation on splenic Treg, donor TA2 (cynomolgus monkey TNFR2 [3]): 0.692 nM | Human EC50, OX-40 up-regulation on splenic Treg, donor BioIVT #BRH1515663 (human TNFR2 [4]): 0.018 nM | Human EC50, OX-40 up-regulation on splenic Treg, donor ZenBio #072518 (human TNFR2 [4]): 0.047 nM | fold improvement of KD compared to its IgG counterparts 854 or 1765 (biotinylated human TNFR2 [5]): 5 fold | Cyno EC50, IKBa degradation in expanded Tregs, donor Cyno3 (cynomolgus monkey TNFR2 [6]): 2.25 nM | Cyno EC50, IKBa degradation in expanded Tregs, donor Cyno 16-477 (cynomolgus monkey TNFR2 [6]): 0.118 nM | Cyno EC50, IKBa degradation in expanded Tregs, donor Cyno 16-873 (cynomolgus monkey TNFR2 [6]): 0.0538 nM | Cyno EC50, IKBa degradation in expanded Tregs, donor Cyno 18-7469 (cynomolgus monkey TNFR2 [6]): 0.4 nM | Cyno EC50, IKBa degradation in expanded Tregs, donor Cyno 18-7473 (cynomolgus monkey TNFR2 [6]): 0.155 nM | Human EC50, IKBa degradation in expanded Tregs, donor Human D23 (human TNFR2 [7]): 0.0478 nM | Human EC50, IKBa degradation in expanded Tregs, donor Human D24 (human TNFR2 [7]): 0.00575 nM | Human EC50, IKBa degradation in expanded Tregs, donor Human D28 (human TNFR2 [7]): 0.02 nM and 0.0179 nM | Human EC50, IKBa degradation in expanded Tregs, donor Human D32 (human TNFR2 [7]): 0.0373 nM | loss of potency in cyno versus human, IKBa degradation (cynomolgus monkey TNFR2 [8]): > 5 fold | mean EC50 for IKBa in cyno expanded Tregs (cynomolgus monkey TNFR2 [8]): 0.145 nM | mean EC50 for upregulation of OX-40 in cyno splenic Treg (cynomolgus monkey TNFR2 [8]): 0.958 nM | fold improvement of EC50 for up-regulation of ICAM-1 against 854 and 1765 (human TNFR2 [9]): 10 fold | fold improvement of Jurkat EC50 compared to both 854 and 1765 (human TNFR2 [9]): > 10 fold | mean EC50 for IKBa in human expanded Tregs (human TNFR2 [9]): 0.026 nM | mean EC50 for OX-40 upregulation on human splenic Treg (human TNFR2 [9]): 0.033 nM | EC50 Jurkat (human TNFR2 [10]): 0.037 mg/L | Kd (biotinylated cyno TNFR2 [11]): 0.61 nM | koff (biotinylated cyno TNFR2 [11]): 0.00706 s⁻¹ | kon (biotinylated cyno TNFR2 [11]): 1.15e+07 M⁻¹ s⁻¹ | Kd (biotinylated human TNFR2 [12]): 0.06 nM | koff (biotinylated human TNFR2 [12]): 0.000473 s⁻¹ | kon (biotinylated human TNFR2 [12]): 8.1e+06 M⁻¹ s⁻¹
B1: TetraFab 2053 (antibody, human IgG1, kappa)
heavy: QVQLVQSGAEVKKPGASVKVSCKVSGFSFPSSGVDWVRQAPGQGLEWLGVTWGVGSTHYNQKFQGRVTITKDTSKSTVYMELSSLRSEDTAVYYCASGEWDEGFVYWGQGTLVTVSSASTKGPSVFPLAPSSKSTSGGTAALGCLVKDYFPEPVTVSWNSGALTSGVHTFPAVLQSSGLYSLSSVVTVPSSSLGTQTYICNVNHKPSNTKVDKKVEPKSCGGGGSQVQLVQSGAEVKKPGASVKVSCKVSGFSFPSSGVDWVRQAPGQGLEWLGVTWGVGSTHYNQKFQGRVTITKDTSKSTVYMELSSLRSEDTAVYYCASGEWDEGFVYWGQGTLVTVSSASTKGPSVFPLAPSSKSTSGGTAALGCLVKDYFPEPVTVSWNSGALTSGVHTFPAVLQSSGLYSLSSVVTVPSSSLGTQTYICNVNHKPSNTKVDKKVEPKSCDKTHTCPPCPAPEAAGAPSVFLFPPKPKDTLMISRTPEVTCVVVDVSHEDPEVKFNWYVDGVEVHNAKTKPREEQYNSTYRVVSVLTVLHQDWLNGKEYKCKVSNKALPAPIEKTISKAKGQPREPQVYTLPPSREEMTKNQVSLTCLVKGFYPSDIAVEWESNGQPENNYKTTPPVLDSDGSFFLYSKLTVDKSRWQQGNVFSCSVMHEALHNHYTQKSLSLSPGK
light: DIQLTQSPSFLSASVGDRVTITCKASQNVGTAVAWYQQKPGKAPKLLIYAASTLQSGVPSRFSGSGSGTEFTLTISSLQPEDFATYYCQQYSSYPLTFGGGTKVEIKRTVAAPSVFIFPPSDEQLKSGVTASVVCLLNNFYPREAKVQWKVDNALQSGNSQESVTEQDSKDSTYSLSSTLTLSKADYEKHKVYACEVTHQGLSSPVTKSFNRGEC
notes: also called TF2053

EC50 CyPBMC (CD25+/Ki67+ of CD4+ cells) (cynomolgus monkey TNFR2 [1]): 13.6 mg/L | EC50 HuPBMC (ICAM-1 up-regulation) (human TNFR2 [2]): 1.31 mg/L | EC50 (CyPBMC) (cynomolgus monkey TNFR2 [13]): 13.6 nM | EC50 (HuPBMC) (human TNFR2 [14]): 1.31 nM | Jurkat EC50 (human TNFR2 [14]): 1.01 mg/L | EC50 (human TNFR2 [15]): 1.21 nM | EC50 Jurkat (human TNFR2 [10]): 1.01 mg/L | Kd (biotinylated cyno TNFR2 [16]): 2.39 nM | koff (biotinylated cyno TNFR2 [16]): 0.00977 s⁻¹ | kon (biotinylated cyno TNFR2 [16]): 4.09e+06 M⁻¹ s⁻¹ | Kd (biotinylated human TNFR2 [17]): 0.32 nM | koff (biotinylated human TNFR2 [17]): 0.00136 s⁻¹ | kon (biotinylated human TNFR2 [17]): 4.2e+06 M⁻¹ s⁻¹
B2: GBT-TNFR2-1765 (antibody, human IgG2, kappa, V domains shown)
VH: QVQLVQSGAEVKKPGASVKVSCKVSGFSFPSSGVDWVRQAPGQGLEWLGVTWGVGSTHYNQKFQGRVTITKDTSKSTVYMELSSLRSEDTAVYYCASGEWDEGFVYWGQGTLVTVSS
VL: DIQLTQSPSFLSASVGDRVTITCKASQNVGTAVAWYQQKPGKAPKLLIYAASTLQSGVPSRFSGSGSGTEFTLTISSLQPEDFATYYCQQYSSYPLTFGGGTKVEIKR
